Peptide text beside a SMILES is read from it.
Tests used:
Format in all cases: binding
Survivin120 = target: T1, Survivin120 (Homo sapiens, UniProt O15392); experiment: ITC titration of tweezers with Survivin120 wildtype
T1 construct: the only published NMR structure originated from a truncated Survivin (aa 1-120) with improved solubility; GST with PreScission site (N); made in house; host or cells: Escherichia coli soluBL21
Protocol: The interaction between the tweezers and Survivin was studied by isothermal titration calorimetry (ITC) and NMR spectroscopy. So far, the only published NMR structure originated from a truncated Survivin (aa 1-120) with improved solubility. […] Since the truncated construct still contains all relevant parts of the protein and gives excellent NMR spectra (SI5), we chose it for all our in vitro experiments and denote it as Survivin120 in the following results.
(§1) ITC was performed with a MicroCal iTC200 from Malvern Panalytical in PBS, pH 7.4 at 25 °C with molecular tweezers in the cell and Survivin120 in the titration syringe. The protein was dialyzed overnight at 4 °C against the PBS buffer. Ligands were dissolved in the respective dialysis buffer. Then, 300 µM TW were titrated with 300 µM Survivin120 WT or 321 µM Survivin120 K90/103T. Then, 100 µM TW-ELTL, TW-ELTLGEFL, or TW-LFEEGLLT was titrated with 1.2 mM Survivin120 WT or 2.5 mM Survivin120 K90/103T. For reverse titrations, either 33.3 or 34.4 µM Survivin120 in the cell was titrated with 5 mM TW or TW-ELTL in the syringe, respectively. All titrations were performed in PBS, pH 7.4 at 25 °C. Then, 1.5 μL injections were used with 120 s spacing time between injections. The injection rate was set to 0.5 µL/s and the reference power was 5 µcal/s. ITC thermograms were fitted to a one set of sites model with the software Origin (v7.0552) provided with the instrument. Heat of dilution was subtracted as constant from each data point.
(§2) ITC thermograms were fitted to a one set of sites model with the software Origin provided with the instrument. Heat of dilution was subtracted as constant from each data point. From three independent experiments (n = 3), one representative example was depicted, and thermodynamic data were derived thereof. For pull-down experiments, only the representative quantification of the depicted western blot is shown. […] Fluorescence anisotropy graphs were generated with GraphPad Prism 5.0. Depicted error bars represent the standard deviation of three independent titrations.

Survivin120 K90/103T = target: T2, Survivin120 K90/103T (Homo sapiens, UniProt O15392, K103T/K90T); experiment: ITC titration of tweezers with Survivin120 K90/103T mutant
T2 construct: the only published NMR structure originated from a truncated Survivin (aa 1-120) with improved solubility; GST with PreScission site (N); made in house; host or cells: Escherichia coli soluBL21
Source text: If the tweezer-based inhibitors indeed bind to lysines/arginines flanking the NES (K90, K91, K103, R106), their mutation to, e.g., threonine, should abolish the observed effects. For this reason, we generated double and triple Survivin120 mutants lacking these putative tweezer anchor points. Unfortunately, most double mutants and especially the triple mutants were unfolded as evidenced by 1D ^1H NMR (SI6); finally, the correctly folded double threonine mutant Survivin120 K90/103T was chosen for further investigation. […] Next, binding of FAM-labeled tweezers (SI3) to either Survivin120 wildtype or the K90/103T mutant was studied by fluorescence anisotropy (Fig. 7d–f). […] We conclude that lysines 90 and 103 are indeed essential for efficient tweezer binding.
as §1, §2

Survivin–CRM1 complex = target: T3, Survivin–CRM1 complex (Homo sapiens, UniProt O15392); experiment: Pull-down with 293T lysate (Survivin142-HA), GST-CRM1 bait, RanQ69L, dGTP
T3 construct: expressed in transfected cells; host or cells: 293T cells (Survivin142-HA); E. coli soluBL21 (GST-CRM1, RanQ69L)
Protocol: We next investigated whether tweezers inhibit the Survivin–CRM1 complex formation in vitro. The effects of the unmodified and peptide-linked tweezers were analyzed via pull-down experiments with 293T lysates containing overexpressed HA-tagged Survivin142, recombinant GST-CRM1 as bait protein, and tweezers (Fig. 6). The parent and ELTL-linked tweezer required 10–50 µM to disrupt the Survivin–CRM1 complex. […] In order to provide experimental evidence for the sequence selectivity of the TW-ELTLGEFL ligand, a scrambled analog was synthesized and clicked to the tweezer, resulting in the hybrid molecule TW-LFEEGLLT (SI1, SI2, and SI10). […] Instead, the slight chemical shift perturbations might be due to the spatial proximity of the peptide moiety to the anchoring residue. All those results strongly indicate that the additional binding energy from the NES interface was lost due to scrambling and thus point toward specific recognition as the reason for increased selectivity and interference with the Survivin–CRM1 interaction. Of note, very high tweezer concentrations (100–200 µM) also weakened GST-CRM1 binding to GSH-Sepharose beads, most likely by low-affinity binding to the GST protein.
(§3) All pull-down assays were performed at room temperature in pull-down buffer (PBS, pH 7.4, 1 mM DTT, 0.02 Triton X-100). GST fusion proteins were immobilized on 50 μL GSH-coated Sepharose 4B beads from GE Healthcare. The beads were prior equilibrated and blocked with 500 μL pull-down blocking buffer (PBS, pH 7.4, 1 (w/v) BSA, 1 mM DTT, 0.02 (v/v) Triton X-100) for 1 h to prevent unspecific binding.
For analysis of the effective inhibitory tweezer concentration, 200 μg 293T lysate with overexpressed Survivin142-HA was preincubated without ligand or with different concentrations (10 nM to 200 μM) of unmodified tweezer TW, TW-ELTL, TW-ELTLGEFL, or TW-LFEEGLLT for 1 h and then mixed with 35 μg GST-CRM1, 55 μg RanQ69L, and 2 mM dGTP. GSH-beads were incubated with this protein mixture for 2 h under rotation. […]
Samples of input and beads taken during pull-down experiments were ran on 12.5 SDS gels and transferred onto 0.2 µM PVDF membranes (Amersham Hybond P 0.2) using a PerfectBlue™ tank electro blotter (Peqlab) at 350 mA for 150 min. […] Chemiluminescence was detected and imaged using the Pierce ECL Plus Western Blotting Substrate kit (Thermo Fisher Scientific) and Chemidoc system (Bio-Rad) or film processor Cawomat 2000 IR (CAWO). Western blots were analyzed by densitometric analysis with ImageJ version 1.52p (U.S. National Institutes of Health), measuring the mean gray intensity of protein bands. […]

[1] = target: T4, GST-Survivin120–CRM1 interaction (Homo sapiens, UniProt O15392); experiment: Pull-down with GST-Survivin120 wildtype bait, CRM1 and RanQ69L
T4 construct: the only published NMR structure originated from a truncated Survivin (aa 1-120) with improved solubility; made in house; host or cells: Escherichia coli soluBL21
Protocol: (§4) Next, we investigated whether tweezer inhibition of the export complex assembly is compromised upon lysine mutations near the NES. Therefore, pull-down experiments were performed with recombinant GST-tagged Survivin120 wildtype and K90/103T as bait proteins, tweezers, recombinant CRM1 and RanQ69L (Fig. 7g). Controls lacking the Survivin baits were included, as well as isolated peptides without tweezer (Fig. 7h). […] However, for the double lysine mutant GST-Survivin120-K90/103T even the tweezer conjugates lost most of their inhibitory power toward the essential Survivin–CRM1 interaction.
as §3
(§5) For analysis of the effective inhibitory tweezer concentration, 200 μg 293T lysate with overexpressed Survivin142-HA was preincubated without ligand or with different concentrations (10 nM to 200 μM) of unmodified tweezer TW, TW-ELTL, TW-ELTLGEFL, or TW-LFEEGLLT for 1 h and then mixed with 35 μg GST-CRM1, 55 μg RanQ69L, and 2 mM dGTP. GSH-beads were incubated with this protein mixture for 2 h under rotation. For analysis of tweezer specificity, 40 μg GST-Survivin120 or GST-Survivin120-K90/103T point mutant was pre-bound to equilibrated GSH-beads in 500 μL pull-down buffer, containing additionally either no ligand or 50 μM unmodified tweezer TW, TW-ELTL, TW-ELTLGEFL, or peptides ELTL and ELTLGEFL, for 1 h under rotation. After washing and blocking, GSH-beads were incubated with a protein mixture consisting of 2 mM dGTP, 50 μg CRM1, and 50 μg RanQ69L for 2 h under rotation.
(§6) Samples of input and beads taken during pull-down experiments were ran on 12.5 SDS gels and transferred onto 0.2 µM PVDF membranes (Amersham Hybond P 0.2) using a PerfectBlue™ tank electro blotter (Peqlab) at 350 mA for 150 min. Membranes were blocked for 1 h using 5% milk powder in TBS buffer containing 0.1% Tween-20. Next, membranes were incubated in primary antibodies against HA (anti-HA, mouse monoclonal, BioLegend, Covance MMS-101R, 1:1,000), GST (anti-GST, mouse monoclonal, Santa Cruz Biotechnology Inc., sc-57753, 1:1000) or CRM1 (anti-CRM1, rabbit polyclonal, Novus Biologicals Ltd., NB100-79802, 1:10,000) overnight at 4 °C. Secondary horseradish peroxidase (HRP)-conjugated antibody (anti-mouse IgG-HRP, sheep, GE Healthcare, NXA931 or anti-rabbit IgG-HRP, donkey, GE Healthcare, NA934) was then added (1:10,000) for 1 h at room temperature. Chemiluminescence was detected and imaged using the Pierce ECL Plus Western Blotting Substrate kit (Thermo Fisher Scientific) and Chemidoc system (Bio-Rad) or film processor Cawomat 2000 IR (CAWO). Western blots were analyzed by densitometric analysis with ImageJ version 1.52p (U.S. National Institutes of Health), measuring the mean gray intensity of protein bands. Uncropped and unprocessed scans of western blots are deposited in the Source Data file.

[2] = target: T5, GST-Survivin120-K90/103T–CRM1 interaction (Homo sapiens, UniProt O15392, K103T/K90T); experiment: Pull-down with GST-Survivin120-K90/103T bait, CRM1 and RanQ69L
T5 construct: the only published NMR structure originated from a truncated Survivin (aa 1-120) with improved solubility; made in house; host or cells: Escherichia coli soluBL21
Protocol: as §4, §3, §5, §6

[3] = CRM1 band, samples 22-28 (K90/103T)

T1 sequence (O15392 1-120): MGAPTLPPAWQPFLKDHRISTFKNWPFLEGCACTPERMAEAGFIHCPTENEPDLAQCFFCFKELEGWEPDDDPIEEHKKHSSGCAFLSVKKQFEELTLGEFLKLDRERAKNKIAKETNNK
T4 sequence (O15392 1-120): as above
T5 sequence (O15392 1-120 K90T/K103T): as the sequence (O15392 1-120) above, with K90T, K103T counted along it
T2 sequence (O15392 1-120 K90T/K103T): as the sequence (O15392 1-120) above, with K90T, K103T counted along it
T3 sequence (O15392 whole entry, one chain of several): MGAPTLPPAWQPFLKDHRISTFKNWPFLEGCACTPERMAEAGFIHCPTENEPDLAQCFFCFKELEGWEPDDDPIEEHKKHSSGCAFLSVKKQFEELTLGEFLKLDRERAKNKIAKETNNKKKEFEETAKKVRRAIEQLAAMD

CC(C)C[C@H](NC(=O)Cn1cc(CCOP(=O)(O)Oc2c3c(c(OP(=O)(O)O)c4c2C2CC4c4cc5c(cc42)C2CC5c4ccccc42)C2CC3c3cc4c(cc32)C2CC4c3ccccc32)nn1)C(=O)N[C@@H](Cc1ccccc1)C(=O)N[C@@H](CCC(=O)O)C(=O)N[C@@H](CCC(=O)O)C(=O)NCC(=O)N[C@@H](CC(C)C)C(=O)N[C@@H](CC(C)C)C(=O)N[C@H](C(=O)O)[C@@H](C)O [TW-LFEEGLLT] (HELM PEPTIDE1{[O=C(Cn1cc(CCOP(=O)(O)Oc2c3c(c(OP(=O)(O)O)c4c2C2CC4c4cc5c(cc42)C2CC5c4ccccc42)C2CC3c3cc4c(cc32)C2CC4c3ccccc32)nn1)[*:2]].L.F.E.E.G.L.L.T}$$$$V2.0)
lower affinity toward wildtype protein compared with TW-ELTLGEFL (Survivin120; ITC KD ratio): ~ three
-TΔS (Survivin120; ITC, Survivin120 WT): -4.7 kcal
ΔG (Survivin120; ITC, Survivin120 WT): -5.7 kcal
ΔH (Survivin120; ITC, Survivin120 WT): -1.0 kcal
Kd (Survivin120; ITC, Survivin120 WT, PBS pH 7.4, 25 °C, one set of sites model, mean ± SEM of fit): 68 ± 22 µM
Kd (Survivin120 K90/103T): 55 ± 24 µM
ΔH (Survivin120 K90/103T; ITC, Survivin120 K90/103T): -1.4 kcal
effectiveness compared with TW-ELTLGEFL (Survivin–CRM1 complex; pull-down analyses): about one order of magnitude less effective
concentration inhibiting the Survivin/CRM1 interaction efficiently (Survivin–CRM1 complex; pull-down, concentrations between 1 and 50 µM (SI18)): > 50 µM

ELTLGEFL peptide: isolated peptide ELTLGEFL without tweezer, pull-down control
CRM1: Peak area determined with ImageJ ([1]; CRM1 band, samples 15-21 (WT)): 27360.9
CRM1 intensity_normalised on GST-Surv intensity (samples 1-14) ([1]; CRM1 band, samples 15-21 (WT)): 0.3991
CRM1: Control w/o GST-Survivin subtracted (sample 16 or 23) ([1]; CRM1 band, samples 15-21 (WT), sample 16 subtracted): 22503.2
GST-Surv: Peak area determined with ImageJ ([1]; GST-Surv bait band, samples 1-7 (WT according to the summary in r39-r41)): 57214.6
GST-Surv: Control w/o GST-Survivin subtracted (sample 2 or 9) ([1]; GST-Surv bait band, samples 1-7 (WT), sample 2 subtracted): 56379.3
Normalised CRM1 intensity, summary of replicates I and II ([1]; WT, w/o tweezer = 100, replicates I and II): 112.936%
CRM1 intensity_normalised on GST-Surv intensity (samples 1-14) and CRM1 intensity w/o incubation (sample 15 or 22) ([1]; samples 15-21 (WT), fraction of sample 15 (w/o Tweezer)): 1.129
CRM1 intensity_normalised on GST-Surv intensity (samples 1-14) and CRM1 intensity w/o incubation (sample 15 or 22) ([1]; samples 15-21 (WT), w/o Tweezer = 100): 112.936%
CRM1: Peak area determined with ImageJ [2, 3]: 38827.8
CRM1 intensity_normalised on GST-Surv intensity (samples 1-14) [2, 3]: 0.485
CRM1: Control w/o GST-Survivin subtracted (sample 16 or 23) ([2]; CRM1 band, samples 22-28 (K90/103T), sample 23 subtracted): 34118.6
GST-Surv: Peak area determined with ImageJ ([2]; GST-Surv bait band, samples 8-14 (K90/103T according to the summary in r39-r41)): 72953.9
GST-Surv: Control w/o GST-Survivin subtracted (sample 2 or 9) ([2]; GST-Surv bait band, samples 8-14 (K90/103T), sample 9 subtracted): 70354.7
Normalised CRM1 intensity, summary of replicates I and II ([2]; K90/103T, w/o tweezer = 100, replicates I and II): 76.5436%
CRM1 intensity_normalised on GST-Surv intensity (samples 1-14) and CRM1 intensity w/o incubation (sample 15 or 22) ([2]; samples 22-28 (K90/103T), fraction of sample 22 (w/o tweezer)): 0.7654
CRM1 intensity_normalised on GST-Surv intensity (samples 1-14) and CRM1 intensity w/o incubation (sample 15 or 22) ([2]; samples 22-28 (K90/103T), w/o tweezer = 100): 76.5436%

Source: PMC7940618, “Specific inhibition of the Survivin–CRM1 interaction by peptide-modified molecular tweezers” (Nature Communications, 2021)
